Among the data in publication PMC4928780 are Dcvm/Dpbs values, retold here.

This assay deals with mucins in cell-free regions of human cervicovaginal mucus (CVM) (human (endogenous in cervicovaginal mucus)). The assay is described as follows: FRAP (fluorescence recovery after photobleaching); labeled exogenous IgG (0.1–1.5 mg/mL final) stirred into 10 μL of fresh pH-neutralized (pH 6.8–7.1) human CVM, 1 hr at 37°C; about 10 μm x 10 μm ROIs in cell-free regions; recovery half-time against PBS (Dcvm/Dpbs); 7–9 repeats.

Consider “Human intravenous immunoglobulin (IVIG), FITC-labeled (antibody)”, for which the Dcvm/Dpbs is 0.8.
